Laboratory results reported in patent US20190352387A1 (Chugai, published 2019).
Substitutions are numbered along the chain they refer to. One block for each binder: values may come before it.

How the values were obtained:
[1] = target: T1, Recombinant human sclerostin (human, UniProt Q9BQB4 24-213); assay: SPR (Biacore T200), 37 C, dissociation at pH 5.8 of complex formed at pH 7.4
T1 construct: Whole entry as named; Secreted recombinant protein purified from FreeStyle293-F conditioned medium; also called human-SOST; Human SOST
T1 sequence: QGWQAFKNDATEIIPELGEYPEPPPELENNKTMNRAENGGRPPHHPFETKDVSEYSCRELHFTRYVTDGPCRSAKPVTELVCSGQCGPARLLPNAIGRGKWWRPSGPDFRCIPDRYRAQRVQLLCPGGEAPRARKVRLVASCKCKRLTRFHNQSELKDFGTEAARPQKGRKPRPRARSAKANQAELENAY
Experimental: (§1) The affinity of anti-sclerostin variants binding to human, cynomolgus monkey (cyno), rat, or mouse sclerostin at pH 7.4 and pH 5.8 were determined at 37 degrees C. using Biacore T200 instrument (GE Healthcare). Anti-human Fc (GE Healthcare) was immobilized onto all flow cells of a CM4 sensor chip using amine coupling kit (GE Healthcare). All antibodies and analytes were prepared in ACES pH7.4 or pH 5.8 buffer containing 20 mM ACES, 150 mM NaCl, 1.2 mM CaCl₂, 0.05% Tween 20, 0.005% NaN₃. Each antibody was captured onto the sensor surface by anti-human Fc. […] Sensor surface was regenerated each cycle with 3M MgCl₂.
(§2) The pH dependent interaction assessment was determined by a modified Biacore assay. Briefly, an additional dissociation phase at pH5.8 was integrated into the Biacore assay immediately after dissociation phase at pH7.4. This is to assess the pH-dependent dissociation between antibody and antigen from the complexes formed at pH7.4. The dissociation rate at pH5.8 buffer was determined by processing and fitting data using Scrubber 2.0 (BioLogic Software) curve fitting software.

[2] = target: T2, Recombinant cynomolgus monkey sclerostin (cynomolgus monkey, UniProt Q9BG78 24-213 (Chlorocebus aethiops entry)); assay: as above
T2 construct: Whole entry as named; expressed and purified as the human counterpart; also called cyno-SOST; cyno SOST
T2 chain: T1 sequence with P70Q, E129A, T161P, S178G
Experimental: as §1, §2

[3] = target: T2, Recombinant cynomolgus monkey sclerostin; assay: SPR (Biacore T200), 37 C, antibody captured by anti-human Fc, sclerostin as analyte, pH 5.8
Experimental: as §1

[4] = target: T1, Recombinant human sclerostin; assay: SPR (Biacore T200), 37 C, antibody captured by anti-human Fc, sclerostin as analyte, pH 7.4
Experimental: as §1

[5] = target: T3, Recombinant mouse sclerostin (mouse, UniProt Q99P68 24-211); assay: SPR (Biacore T200), 37 C, antibody captured by anti-human Fc, sclerostin as analyte, pH 5.8; pH 5.8
T3 construct: Whole entry as named; also called mouse-SOST
T3 sequence: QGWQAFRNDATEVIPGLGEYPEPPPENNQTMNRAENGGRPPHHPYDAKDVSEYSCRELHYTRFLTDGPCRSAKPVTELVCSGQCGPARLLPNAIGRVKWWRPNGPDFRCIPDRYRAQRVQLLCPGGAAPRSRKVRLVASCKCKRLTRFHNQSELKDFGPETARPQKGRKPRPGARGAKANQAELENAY
Experimental: as §1

[6] = target: T3, Recombinant mouse sclerostin; assay: SPR (Biacore T200), 37 C, antibody captured by anti-human Fc, sclerostin as analyte, pH 7.4; pH 7.4
Experimental: as §1

[7] = target: T4, Recombinant rat sclerostin (rat, UniProt Q99P67 29-213); assay: SPR (Biacore T200), 37 C, dissociation at pH 5.8 of complex formed at pH 7.4
T4 construct: Whole entry as named; also called rat-SOST
T4 sequence: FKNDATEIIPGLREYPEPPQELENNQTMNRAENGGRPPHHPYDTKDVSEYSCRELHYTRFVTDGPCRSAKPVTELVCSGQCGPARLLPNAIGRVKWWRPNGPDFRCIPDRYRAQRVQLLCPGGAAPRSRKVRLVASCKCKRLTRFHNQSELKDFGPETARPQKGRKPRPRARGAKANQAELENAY
Experimental: as §1, §2

[8] = target: T3, Recombinant mouse sclerostin; assay: as above
Experimental: as §1, §2

[9] = target: T4, Recombinant rat sclerostin; assay: SPR (Biacore T200), 37 C, antibody captured by anti-human Fc, sclerostin as analyte, pH 5.8
Experimental: as §1

[10] = target: T1, Recombinant human sclerostin; assay: as above
Experimental: as §1

[11] = target: T2, Recombinant cynomolgus monkey sclerostin; assay: SPR (Biacore T200), 37 C, antibody captured by anti-human Fc, sclerostin as analyte, pH 7.4
Experimental: as §1

[12] = target: T3, Recombinant mouse sclerostin; assay: SPR (Biacore T200), 37 C, antibody captured by anti-human Fc, sclerostin as analyte, pH 5.8
Experimental: as §1

koff [7]: 0.0059 s⁻¹ | koff [8]: 0.0107 s⁻¹ | Kd [9]: 4.2 nM
B2: mabA_pH1 (antibody, V domains shown)
VH: EVQLVQSGAEVKKPGASVKVSCKASGYTFTDYNMHWVRQAPGQGLEWMGEINPNSGHAGYNQKFKGRVTMTTDTSTSTAYMELRSLRSDDTAVYYCARLHYDDIYDDWYFDVWGQGTTVTVSS
VL: DIQMTQSPSSLSASVGDRVTITCRASHDISNYLNWYQQKPGKAPKLLIYYTSRLLSGVPSRFSGSGSGTDFTLTISSLQPEDFATYYCQQGDTLPYTFGGGTKVEIK

koff [8]: 0.00265 s⁻¹ | Kd [12]: 0.26 nM
B4: mabB (antibody, V domains shown)
VH: QVQLVQSGAEVKKPGASVKVSCKVSGFPIKDTFQHWVRQAPGKGLEWMGWSDPEIGDTEYASKFQGRVTMTEDTSTDTAYMELSSLRSEDTAVYYCATGDTTYKFDFWGQGTTVTVSS
VL: DIQMTQSPSSLSASVGDRVTITCKASQDVHTAVAWYQQKPGKAPKLLIYWASTRWTGVPSRFSGSGSGTDFTLTISSLQPEDFATYYCQQYSDYPWTFGGGTKVEIK

Second part, the binder before the results:

B1: mabA (antibody, V domains shown)
VH: B2 VH with H57G, H100G
VL: B2 VL with H27Q
koff [1]: 0.00631 s⁻¹ | koff [2]: 0.00697 s⁻¹ | Kd [3]: 1.4 nM | Kd [4]: 0.08 nM | Kd [5]: < 0.01 nM | Kd [6]: < 0.01 nM

B3: mabA_NpH2 (antibody, V domains shown)
VH: B2 VH with H57G, H100G
VL: B2 VL with H27Q, Y50H
koff [1]: 0.0023 s⁻¹ | koff [2]: 0.0018 s⁻¹ | Kd [10]: 0.69 nM | Kd [11]: 0.28 nM
